Data: patent US20170327596A1
pKd: −log10 of the molar value.

Assays:
[1] = molecular target: pHuD peptide presented by HLA-A2 on T2 cells (human); assay: cell-based or functional assay
[2] = molecular target: HLA/pHuD complex (HLA-A0201 with the modified peptide pHuD), HLA/peptide complex used in surface plasmon resonance (human); assay: surface plasmon resonance, soluble TCR and HLA/peptide complex
[3] = molecular target: HLA/pTax complex (HLA-A0201 with the pTax peptide of HTLV-1 Tax), HLA/peptide complex used in surface plasmon resonance (human); assay: as above

Substance	kinetic of CD107 upregulation [1] [h]	peptide needed to trigger a CD107 response [1] [fold]	pKd [2]	pKd [3]	half-life t1/2 [3] [s]
Tax-TCR expressed on transduced Jurkat cells or primary human T cells (pMP71 retroviral construct)	4	10	–	–	–
wild type Tax-TCR, soluble TCR molecule (HLA-A0201-restricted TCR specific for the pTax peptide of HTLV-1 Tax)	–	–	3.91	5.74	9.3
